From patent US20250206818A1 (AGENUS, published 2025)

T1: human LAG-3 (human, UniProt P18627 23-450, limits assumed)
T1 construct: Selections used human LAG-3-Fc, human LAG-3-6His, a 30 aa LAG-3 peptide and/or cells with cynomolgus LAG-3; also called CD223
T1 sequence (looked up): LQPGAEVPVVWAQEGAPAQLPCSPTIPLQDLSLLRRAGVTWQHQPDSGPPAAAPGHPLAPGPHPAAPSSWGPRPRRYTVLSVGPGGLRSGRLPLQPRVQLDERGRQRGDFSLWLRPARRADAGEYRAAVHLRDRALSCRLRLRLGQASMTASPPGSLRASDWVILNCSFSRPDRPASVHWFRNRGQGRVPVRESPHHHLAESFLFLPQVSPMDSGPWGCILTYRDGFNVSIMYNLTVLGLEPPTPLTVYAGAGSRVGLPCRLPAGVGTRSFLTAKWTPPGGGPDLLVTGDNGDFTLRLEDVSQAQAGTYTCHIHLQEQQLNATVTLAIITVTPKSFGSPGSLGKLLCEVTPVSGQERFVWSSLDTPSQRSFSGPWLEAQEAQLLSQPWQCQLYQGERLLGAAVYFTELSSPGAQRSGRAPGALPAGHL

T2: human LAG-3 expressed on cells (human, UniProt P18627 23-525)
T2 construct: whole, on cells; also called CD223
T2 sequence (looked up): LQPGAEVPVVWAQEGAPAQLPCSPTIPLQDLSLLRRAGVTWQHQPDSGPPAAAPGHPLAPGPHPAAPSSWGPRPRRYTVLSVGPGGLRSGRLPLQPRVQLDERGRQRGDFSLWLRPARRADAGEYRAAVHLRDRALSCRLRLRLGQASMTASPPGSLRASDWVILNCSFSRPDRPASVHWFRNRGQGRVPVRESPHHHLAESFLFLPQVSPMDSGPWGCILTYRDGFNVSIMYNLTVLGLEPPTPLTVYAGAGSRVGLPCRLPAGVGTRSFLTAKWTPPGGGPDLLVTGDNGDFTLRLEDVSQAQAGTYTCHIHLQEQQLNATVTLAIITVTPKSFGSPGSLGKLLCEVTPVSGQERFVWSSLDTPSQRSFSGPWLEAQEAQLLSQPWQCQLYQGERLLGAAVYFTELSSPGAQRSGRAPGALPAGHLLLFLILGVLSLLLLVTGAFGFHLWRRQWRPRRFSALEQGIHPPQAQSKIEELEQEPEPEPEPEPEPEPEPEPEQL


Tests used:
human LAG-3 = target: T1, human LAG-3; test: Fab phage display selection; periplasmic extracts screened by ELISA or flow cytometry
Description: Anti-LAG-3 antibodies were identified by generation and selection of an immunized Fab phage display library. […] Per mouse, a Fab library was then generated by random-primed cDNA using total RNA as a template to amplify variable regions from mouse antibody genes. Heavy and kappa chain amplicons were combined and cloned into phagemid vectors. […] The 30 amino acid human LAG-3 peptide is a biotinylated peptide comprising the amino acid sequence of […] (SEQ ID NO: 199). Periplasmic extracts of selected Fab clones were then screened by ELISA or flow cytometry. Antibody sequencing and off-rate analysis were then performed on anti-LAG-3 Fabs.

[1] = target: T2, human LAG-3 expressed on cells; test: flow cytometry, Fab periplasmic extract on Jurkat cells expressing human LAG-3 (FIGS. 1A-1C)
Procedure: The anti-LAG-3 Fabs from periplasmic extracts were tested for binding to LAG-3-expressing cells using flow cytometry. Briefly, wild type and human LAG-3-expressing Jurkat cells were plated at 2×10⁵ cells/well in sample buffer (PBS (Gibco, Cat #10010-015)+0.5% FBS (Gibco, Cat #10270-106)) in 96-well U-bottom plates (Sarstedt). 22 μl of anti-LAG-3 Fab periplasmic extract and 83 μl of diluted anti-c-myc antibody (Gentaur, Clone #9E10, Cat #04-cmyc-9E10) were incubated for 30 minutes at room temperature. 100 μl of the periplasmic extract/anti-c-myc mixture was added to cells and then incubated for one hour on ice. Cells were washed three times and then incubated with a goat anti-mouse APC (BD Biosciences, Cat #550826) for 30 minutes on ice. Cells were washed three times and then analyzed with a FACS machine (BD Accuri6).

Row | Binder | binding result (human LAG-3) | binding result [1]
1 | P13B11 Fab (Fab, V domains shown, Murine Fab, periplasmic extract) VH: QVQLQQPGAELVKPGASVKLSCTASGFNIKDNYMDWVKQRPEQGLEWIGKIDPANGNTKYDPKFQGKATITADTSSNTAYLQLSSLTSEDTAVYYCATYYYRYDVGGFDYWGQGTTLTVS VL: QIVLTQSPALMAASPGEKVTITCSVSSSISSSNLHWFQQKSGTSPKLWIYGTSNLASGVPVRFSGSGSGTSYSLTISSMEAEDAATYYCQQWSSYPFTFGSGTKLEIK | binds | binds
2 | P13E02 Fab (Fab, V domains shown, Murine Fab, periplasmic extract) VH: QVQLQQPGAELVKPGASVKLSCTVSGFNIKDTYIHWVKQRPEQGLEWIGEIDPANGNSKYAPRFQGKATITADTSSNTAYLQLSSLTSEDTAVYYCATYYYRYDVGGFDYWGQGTTLTVS VL: ENVLTQSPALMAASPGEKVTITCSVSSSISSSNLHWFQQKSGTSPKLWIYGTSNLASGVPVRFSGSGSGTSYSLTISSMEAEDAATYYCQQWSSYPFTFGSGTKLEIK | binds | binds
3 | P16H05 Fab (Fab, V domains shown, Murine Fab, periplasmic extract) VH: QVQLQQPGAELVKPGASVKLSCTASGFNIKDNYIHWVKQRPEQGLEWIGSIDPANGNTKYDPKFQGKASITADTSSNTAYLQLSSLTSEDTAVYYCASYFYRYDVGGFDYWGQGTTLTVS VL: EIVLTQSPALMAASPGEKVTITCSVSSSISSSNLHWYQQKSGTSPKLWIYGTSNLASGVPVRFSGSGSGTSYSLTISSMEAEDAATYYCQQWSSYPHTFGGGTKLEIK | binds | binds
4 | P01C09 Fab (Fab, V domains shown, Murine Fab, periplasmic extract) VH: QVQLKQSGAELVKPGASVKLSCTASGFNIKDTYMYWVKQRPEQGLEWIGRIDPANGNTKYDPKLQGKATITADTSSNTVYLQLSSLTSEDTAVFYCVIYSYRYDVGGFDYWGQGTTLTVS VL: EIVLTQSPALMAASPGEKVTITCSVSSSISSSNLHWYQQKSGTSPKLWIYGTSNLASGVPVRFSGSGSGTSYSLTISSMEAEDAATYYCQQWSSYPFTFGSGTKLEIK | binds | binds
5 | P14G03 Fab (Fab, V domains shown, Murine Fab, periplasmic extract) VH: QVQMKQSGAELVKPGASVKLSCTASGFNIKDTYIHWVKQRPGQGLEWIGEIDPANGNTKYDPKFQGKATITADTSSNTAYLQLSSLTSEDTAVYYCATYYYRYDVGGFDYWGQGTTLTVS VL: DIVLTQSPALMAASPGEKVTITCSVSSSISSSNLYWFQQKSGTSPKLWIYGTSNLASGVPVRFSGSGSGTSYSLTISSMEAEDAATYYCQQWSSYPFTFGSGTKLEIK | binds | binds
6 | P13C08 Fab (Fab, V domains shown, Murine Fab, periplasmic extract) VH: QVQLKQSGAELVKPGASVKLSCTASGFNIKDNYIHWVKQRPEQGLEWIGSIDPANGNTKYDPKFQGKASITADTSSNTAYLQLSSLTSEDTAVYYCASYFYRYDVGGFDYWGQGTTLTVS VL: DVVMTQTPALMAASPGEKVTITCSVSSSISSSNLHWFQQKSGTSPKLWIYGTSNLASGVPVRFSGSGSGTSYSLTISSMEAEDAATYYCQQWSSYPFTFGSGTKLEIK | binds | binds
7 | P13F02 Fab (Fab, V domains shown, Murine Fab, periplasmic extract) VH: QVQLQQPGAELVKPGASVKLSCTASGFNIKDTYIHWVKQRPEQGLDWVGEIDPANGHTKYDPKFQGKATITADTSSNTAYLQLSSLTSEDTAVYYCATYYYRYDVGGFDYWGQGTTLTVS VL: ENVLTQSPALMAASPGEKVTITCSVSSSISSSNLHWFQQKSGTSPKLWIYGTSNLASGVPVRFSGSGSGTSYSLTISSMEAEDAATYYCQQWSSYPFTFGSGTKLEIK | binds | binds
8 | P13H05 Fab (Fab, V domains shown, Murine Fab, periplasmic extract) VH: QVQLQQPGAELVKPGASVKLSCTASGFNIKDTYIHWVKQRPEQGLEWIGEIDPANDNTKYDPKFQGKATITADTSSNTAYLQLSSLTSEDTAVYYCATYYYRYDVGGFDYWGQGTTLTVS VL: ENVLTQSPALMAASPGEKVTITCSVSSSISSSNLHWFQQKSGTSPKLWIYGTSNLASGVPVRFSGSGSGTSYSLTISSMEAEDAATYYCQQWSSYPFTFGSGTKLEIK | binds | binds
9 | P15B06 Fab (Fab, V domains shown, Murine Fab, periplasmic extract) VH: EVQLQQSGAELVKPGASVKLSCTASGFNIKDTYMYWVKQRPEQGLDWIGRIDPANGNTHFDPKFQGKATITADTSSNTAYLQLSSLTSEDTAVYYCSTYFYRYDVGGFDYWGQGTTLTVS VL: QILLTQSPALMAASPGEKVTITCSVSSSISSSNLHWYQQKSGTSPKLWIYGTSNLASGVPVRFSGSGSGTSYSLTISSMEAEDAATYYCQQWSSYPLTFGAGTKLELK | binds | binds
10 | P13D04 Fab (Fab, V domains shown, Murine Fab, periplasmic extract) VH: QVQLQQSGAELVKPGASVKLSCTASGFNIKDNYMDWVKQRPEQGLEWIGKIDPANGNTKYDPKFQGKATITADTSSNTAYLQLSSLTSEDTAVYYCATYYYRYDVGGFDYWGQGTTLTVS VL: DIVLTQSPALMAASPGEKVTITCSVSSSISSSNLHWFQQKSGTPPKLWIYGTSNLASGVPVRFSGSGSGTSYSLTISSMEAEDAATYYCQQWSSYPFTFGSGTKLEIK | binds | binds
11 | P13A06 Fab (Fab, V domains shown, Murine Fab, periplasmic extract) VH: QVQLKQSGAELVKPGASVKLSCTASGFNIKDTYMYWVKQRPEQGLEWIGRIDPANGNTKYDPKFQGKATITADTSSNTVYLQLSSLTSEDTAVFYCVIYSYRYDVGGFDYWGQGTTLTVS VL: ENVLTQSPALMAASPGEKVTITCSVSSSISSSNLHWYQQKSGTSPKLWIYGTSNLASGVPVRFSGSGSGTSYSLTISSMEAEDAATYYCQQWSSYPHTFGGGTKLEIK | binds | binds
12 | P14F06 Fab (Fab, V domains shown, Murine Fab, periplasmic extract) VH: QVQMKQSGAELVKPGASVKLSCTASGFNIKDNYIHWVKQRPEQGLEWIGSIDPANGNTKYDPKFQGKASITADTSSNTAYLQLSSLTSEDTAVYYCASYFYRYDVGGFDYWGQGTTLTVS VL: EIVLTQSPALMAASPGEKVTITCSVSSSISSSNLHWFQQKSGTSPKLWIYGTSNLASGVPVRFSGSGSGTSYSLTISSMEAEDAATYYCQQWSSYPFTFGSGTKLEIK | binds | binds
13 | P13F09 Fab (Fab, V domains shown, Murine Fab, periplasmic extract) VH: QVQLQQSGAELVKPGASVKLSCTASGFNIKDNYIHWVKQRPEQGLEWIGSIDPANGNTKYDPKFQGKASITADTSSNTAYLQLSSLTSEGTAVYYCASYFYRYDVGGFDYWGQGTTLTVS VL: EIVLTQSPALMAASPGEKVTITCSVSSSISSSNLHWFQQKSGTSPKLWIYGTSNLASGVPVRFSGSGSGTSYSLTISSMEAEDAATYYCQQWSSYPFTFGSGTKLEIK | binds | binds
14 | P14B07 Fab (Fab, V domains shown, Murine Fab, periplasmic extract) VH: QVQLQQPGAELVKPGASVKLSCTASGFNIKDNYIHWVKQRPEQGLEWIGSIDPANGNTKYDPKFQGKASITADTSSNTAYLQLSSLTSEDTTVYYCASYFYRYDVGGFDYWGQGTTLTVS VL: ENVLTQSPALMAASPGEKVTITCSVSSSISSSNLHWYQQKSGTSPKLWIYGTSNLASGVPVRFSGSGSGTSYSLTISSMEAEDAATYYCQQWSSYPFTFGSGTKLEIK | binds | binds
